Laboratory results from patent US20150111822A1 (OTTAWA HOSPITAL RESEARCH INSTITUTE, published 2015).

Target: T1, endogenous Fzd7 on activated mouse satellite cells (mouse, UniProt Q61090 33-572)
T1 construct: whole, on cells; also called Frizzled7; Wnt7a receptor Fzd7
Experiment: in-situ proximity ligation assay (PLA) on activated satellite cells on cultured myofibers; signal abolished by siSdc4
Procedure: A) Co-IP of Sdc4 with the Wnt7a receptor Fzd7 from satellite cell derived primary myoblasts overexpressing (OE) Fzd7-Flag and Sdc4-YFP. Co-IP was performed with an anti-YFP antibody or with an IgG control. B) Proximity ligation assay (PLA) of Sdc4 and Fzd7 in activated satellite cells after 42 hours of fiber culture. […] Scale bar=5 μm. C) Proximity ligation assay (PLA) of Sdc4 and FN in activated satellite cells after 42 hours of fiber culture. […] Scale bar=5 μm. D) Co-IP of Fzd7 with FN from satellite cell derived primary myoblasts overexpressing (OE) Fzd7-Flag and FN. Co-IP was performed with an anti-YFP antibody. siRNA knockdown of endogenous Sdc4 (siSdc4) prevented Co-IP of FN with Fzd7 when compared to siSCR. E) Co-IP of Sdc4 with Wnt7a from satellite cell derived primary myoblasts that overexpress (OE) Sdc4-YFP and Wnt7a-HA. Co-IP was performed with an anti-flag antibody. siRNA knockdown of endogenous Fzd7 prevented Co-IP of Sdc4 with Wnt7a. F) Rac1 activation assay. Total Rac1 is shown as a loading control. Densitometric quantification represents average grey values±SEM after subtraction of the background and normalization to total Rac1. The average grey value obtained for empty vector (EV) was set to 100%, n=3, p values are ***p<0.001, **p<0.01, *p<0.05.
Mouse Fzd7 immunoprecipitated with mouse Sdc4 in mammalian myogenic cells. […]

binding result: binds
B1: endogenous Syndecan 4 (Sdc4) on mouse satellite cells and primary myoblasts (receptor, UniProt O35988 24-198, looked up)
chain: ESIRETEVIDPQDLLEGRYFSGALPDDEDAGGSDDFELSGSGDLDDTEEPRPFPEVIEPLVPLDNHIPENAQPGIRVPSEPKELEENEVIPKRAPSDVGDDMSNKVSMSSTAQGSNIFERTEVLAALIVGGVVGILFAVFLILLLVYRMKKKDEGSYDLGKKPIYKKAPTNEFYA
notes: whole, on cells; also called FN receptor Sdc4
